According to paper PMC7948508, “Comparison of human poly-N-acetyl-lactosamine synthase structure with GT-A fold glycosyltransferases supports a modular assembly of catalytic subsites” (The Journal of Biological Chemistry, 2020):

Molecular target: the molecule itself
Assay: SEC-MALS; 20 μl at 1 mg/ml on Superdex 75; 25 mM HEPES (pH 7.4), 150 mM NaCl, 0.02% NaN3

B1: catalytic domain of human β-1,3-N-acetylglucosaminyltransferase 2 (B3GNT2, residues 34–397) (domain or fragment, UniProt Q9NY97 34-397, looked up)
chain: EKNGKGEVIIPKEKFWKISTPPEAYWNREQEKLNRQYNPILSMLTNQTGEAGRLSNISHLNYCEPDLRVTSVVTGFNNLPDRFKDFLLYLRCRNYSLLIDQPDKCAKKPFLLLAIKSLTPHFARRQAIRESWGQESNAGNQTVVRVFLLGQTPPEDNHPDLSDMLKFESEKHQDILMWNYRDTFFNLSLKEVLFLRWVSTSCPDTEFVFKGDDDVFVNTHHILNYLNSLSKTKAKDLFIGDVIHNAGPHRDKKLKYYIPEVVYSGLYPPYAGGGGFLYSGHLALRLYHITDQVHLYPIDDVYTGMCLQKLGLVPEKHKGFRTFDIEEKNKNNICSYVDLMLVHSRKPQEMIDIWSQLQSAHLKC
modifications: N-glycans cut by EndoF1, leaving only a single GlcNAc residue attached to each Asn side chain (sequons N79, N89, N127, N173, N219); at Asn219 a Manβ1,4-GlcNAcβ1,4-GlcNAcβ- glycan is seen in the crystal structure
notes: also called B3GNT2 cat domain; B3GNT2 catalytic domain; source: HEK293S (GnTI-) cells, transient transfection, secreted; purified (Ni2+-NTA, TEV protease + EndoF1 cleavage, second Ni2+-NTA, Superdex 75); not shown: 8xHis, N-terminal, cleaved; AviTag, N-terminal, cleaved; superfolder GFP, N-terminal, cleaved
B1 was tested, and the “stoichiometry N” value was 2.
